Test results: patent US20210404962A1

Key:
[1] = target: GFP1-10 (large fragment of GFP) (Aequorea victoria (Water jellyfish) (Mesonema victoria)) [GFP: P42212]; assay: fluorescence reconstitution, pseudo-first order, one phase association fit
[2] = target: GFP1-10 (large fragment of GFP) (Aequorea victoria (Water jellyfish) (Mesonema victoria)) [GFP: P42212]; assay: fluorescence increase over time with varied GFP11 peptide and purified GFP1-10 at 3 mM, one site binding model
[3] = target: GFP1-10 (large fragment of GFP) (Aequorea victoria (Water jellyfish) (Mesonema victoria)) [GFP: P42212]; assay: stopped-flow fluorescence reconstitution, pseudo-first order, one phase association fit; 50 nM GFP11, excess GFP1-10
[4] = target: GFP1-10 (large fragment of GFP) (Aequorea victoria (Water jellyfish) (Mesonema victoria)) [GFP: P42212]; assay: fluorescence reconstitution, pseudo-first order, one phase association fit; GFP11 concentration not stated
[5] = target: GFP1-10 (large fragment of GFP) (Aequorea victoria (Water jellyfish) (Mesonema victoria)) [GFP: P42212]; assay: fluorescence reconstitution kinetics, calculated from kobs at varied GFP11 concentrations

half time [1]: 95 s
Kd [2]: 481 µM
kobs [3]: 0.003 s⁻¹
kobs [4]: 0.007 s⁻¹
kon [5]: 760000 M⁻¹ s⁻¹
Substance: GFP11 peptide (chemically synthesized small fragment of split GFP; variant not stated)
